Consider two molecules from article doi:10.1101/2021.02.07.430097.

The assay deals with Ape4 (full length) of the Ape4-Nbr1 fusion protein (S. pombe). As to the kind of experiment: cryo-EM structure.

In turn, “Ape4 (full length) of the Ape4-Nbr1 fusion protein (enzyme)” came in with a stoichiometry N of 12.

B1: Nbr1(53-129) of the Ape4-Nbr1 fusion protein (domain or fragment)
chain: PTLRSSSVACNTCLKIIRNDSFHCTKCFDFDVCRDCYAKQAFLHPCPKPHFVLVRSSIPSVASLTCSVNSMSVSPQS
Turning to B1, the stoichiometry N (Nbr1-ZZ1 molecules per Ape4 dodecamer) was determined as 12.
